Measured values taken from the nanobody polyreactivity screen of Harvey et al. (2022).

Experiment: yeast display, Sf9 membrane polyspecificity reagent, FACS + sequencing; frameworks hold sequencing errors
Procedure, shortened: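 Galactose induction of a Saccharomyces cerevisiae BJ5465 synthetic nanobody display library ran 36–48 hours. The cells were then stained for 1 hour at 4 °C with 10% biotinylated, detergent-solubilized Sf9 membrane reagent, pulled down on streptavidin microbeads and FACS-sorted into low and high (top ~1%) gates on expression and reagent-binding fluorescence. Labels for polyreactivity follow the gate of origin.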

Question: For “QVQLVESGGGLVQAGGSLRLSCAASGNAMGWYRQAPGKERELVAAITRRVGSTYYADSVKGRFTISRDNAKNTVYLQMNSLKPEDTAVYYCAADNPSYNLWYGYWGQGTQVTVSS”, which “polyreactivity (PSR sort gate)” value is on record?
Answer: low polyreactivity

Question: For “QVQLVESGGGLVQAGGSLRLSCAASGNIFAWYAMGGYRQAPGKERELVADISSRGGSTYYADSVKGRFTISRDNAKNTVYLQMNSLKPEDTAVYYCAAVWYWTQDYDYWGQGTQVTVSS”, which “polyreactivity (PSR sort gate)” value is on record?
Answer: low polyreactivity

Question: Which “polyreactivity (PSR sort gate)” value does the source give for “QVQLVESGGGLVQAGGSLRLSCAASGNIFAYYAMGWYRQAPGKEREFVAAIRSSGVSTYYADSVKGRFTISRDNAKNTVYLQMNSLKPEDTAVYYCAADSITGGWLIVSPPFNYTYDYWGQGTQVTVSS” here?
Answer: low polyreactivity

Question: For “QVQLVESGGGLVQAGGSLRLSCAASGNIFAYYAMGWYRQAPGKEREFVAAIRSSGVSTYYADSVKGRFTISRDNAKNTVYLQMNSLKPEDTAVYYCAADSITGGWLIVSPPYNYTYDYWGQGTQVTVSS”, which “polyreactivity (PSR sort gate)” value is on record?
Answer: low polyreactivity

Question: Which “polyreactivity (PSR sort gate)” value does the source give for “QVQLVESGGGLVQAGGSLRLSCAASGNIFDLYAMGWYRQAPGKERELVAAITRSSSRTYYADSVKGRFTISRDNAKNTVYLQMNSLKPEDTAVYYCRAKQVNRFDYWGQGTKVTVSS” here?
Answer: high polyreactivity

Question: For “QVQLVESGGGLVQAGGSLRLSCAASGNIFDTYVMGWYRQAPGKERELVAAITSDGGTYYADSVKGRFTSSRDNATNPVYLQMNSRQPEDTAVYYCAADTYYYPIHDYWGQGTQVTVSS”, which “polyreactivity (PSR sort gate)” value is on record?
Answer: low polyreactivity

Question: For “QVQLVESGGGLVQAGGSLRLSCAASGNIFDVYAMGWYRQAPGKERELVADIDRGGTTYADSVKGRFTISRDNAKNTVYLQMNSLKPVDTAVYYCAADYVQGFGFYYQWLYDYWGQGTQVTVSS”, which “polyreactivity (PSR sort gate)” value is on record?
Answer: low polyreactivity

Question: For “QVQLVESGGGLVQAGGSLRLSCAASGNIFGGNAMGWYRQAPGKERELVAAMTRGGSTYYADSVKGRFTISRDNAKNTVYLQMNSLKPEATAVYYCAKSYRLRSDYDYWGQGTQVTVSS”, which “polyreactivity (PSR sort gate)” value is on record?
Answer: low polyreactivity

Question: With “QVQLVESGGGLVQAGGSLRLSCAASGNIFGVYAMGWYRQAPGKERELVAAIRYSTVSTYYADSVKGRFTISRDNAKNTVYLQMNSLKPEDTAVYYCAAQRRRYLPGHYYYWGQGTQVTVSS” as the sequence, how does the “polyreactivity (PSR sort gate)” value read?
Answer: high polyreactivity

Question: With “QVQLVESGGGLVQAGGSLRLSCAASGNIFGWNDMGWCRQAPGKEWEVVAAISWTGDSTYDADSVKGRFTISRDNAKNTVYLQMNSLKPEDTAVYYGAADTPTLQYLTPRSEFDAWGQGTQVTVSS” as the sequence, how does the “polyreactivity (PSR sort gate)” value read?
Answer: low polyreactivity

Question: Which “polyreactivity (PSR sort gate)” value does the source give for “QVQLVESGGGLVQAGGSLRLSCAASGNIFGWYAMGWYRQAPGKERELVAAISSGGRTNYADSVKGRFTISRDNAKNTVYLQMNSLKPEDTAVYYCAAERKLYGLYDYWGQGTQVTVSS” here?
Answer: low polyreactivity

Question: For “QVQLVESGGGLVQAGGSLRLSCAASGNIFGYYAMGWYRQAPGKERELVAAIRTRGGRTYYADSVKGRFTISRDNAKTTVYLQMNSLKPEDTAVYYGAARSIAGFWRYDYWGQGTQVTVSS”, which “polyreactivity (PSR sort gate)” value is on record?
Answer: high polyreactivity

Question: Which “polyreactivity (PSR sort gate)” value does the source give for “QVQLVESGGGLVQAGGSLRLSCAASGNIFILNAMGWYRQAPGKERELVAAISTTGGSTYYADSVKGRFTISRDNAKNTVYLQMNSLKPEDTAVYYCAAYTYRYSTFYYWGQGTQVTVSS” here?
Answer: high polyreactivity

Question: With “QVQLVESGGGLVQAGGSLRLSCAASGNIFIRYAMGWYRQAPGKERDLVAAISQSGGGTSYADSVKGRFTISRDNAKNTVYLQMNSLKPEDTAVYYCNARYWRYPWRFGAWVGHDYWGQGTQVTVSS” as the sequence, how does the “polyreactivity (PSR sort gate)” value read?
Answer: low polyreactivity

Question: With “QVQLVESGGGLVQAGGSLRLSCAASGNIFKYYTMGWYRQAPGKERELVAAITSGGRTNYADSVKGRFTISRDNAKNTVYLQMNSLKPEDTAVYYCAAYDVIYSQGFDYWGQGTQVTVSS” as the sequence, how does the “polyreactivity (PSR sort gate)” value read?
Answer: low polyreactivity

Question: With “QVQLVESGGGLVQAGGSLRLSCAASGNIFLKNAMGWYRQAPGKERELVAAISKRGGSTYYAYSVKGRFTISRDNAKNTVYLQMNSLKPEDTAVYYCAAVLTKVWRGPEMDYWGQGTQVTVSS” as the sequence, how does the “polyreactivity (PSR sort gate)” value read?
Answer: high polyreactivity

Question: With “QVQLVESGGGLVQAGGSLRLSCAASGNIFLTYAMGWYRQAPGKERELVAAISRGGRTYYADSVKGRFTISRDNAKNTVYLQMNRLKPEDTAVYYCNVQPDRISRYDYWGQGTQVTVSS” as the sequence, how does the “polyreactivity (PSR sort gate)” value read?
Answer: high polyreactivity

Question: With “QVQLVESGGGLVQAGGSLRLSCAASGNIFLYYAMGWYRKAPGKERELVADIDSSGASTYYADSVKGRFTISRDNAKNTVYLQMNSLKPEDTAVYYCPAEFHWWYAGYDYGYWGLGTQVTVSS” as the sequence, how does the “polyreactivity (PSR sort gate)” value read?
Answer: low polyreactivity

Question: For “QVQLVESGGGLVQAGGSLRLSCAASGNIFLYYAMRWYRQAPGKERELVADIDSSGASTYYADSVKVRFTISRDNAKNTVYLQMNSLKPEDTAVYYCAAEFHWWYAGYDYGYWGQGTKVTVSS”, which “polyreactivity (PSR sort gate)” value is on record?
Answer: low polyreactivity

Question: Which “polyreactivity (PSR sort gate)” value does the source give for “QVQLVESGGGLVQAGGSLRLSCAASGNIFNYNAMGWYRQATGNERELVAAISFSGGSTYYADSVKARFTISRDNAQNTVYLQMNSLKPEDTAVYYCAKAERNYFEYWGQGTQVTVSS” here?
Answer: high polyreactivity

Question: Which “polyreactivity (PSR sort gate)” value does the source give for “QVQLVESGGGLVQAGGSLRLSCAASGNIFPSYAMGWYRQAPGKERELVASINFSDGYTSYADSVKGRFTISRDNAKNTVYLQMNSLKPEDTAVYNCNADVWYYYYGFKGEEDYWGQGTQVTVSS” here?
Answer: low polyreactivity

Question: With “QVQLVESGGGLVQAGGSLRLSCAASGNIFRGYTMGWSRQAPGKEREWVATISWNGVSTFYADSVKGRFTISRDNAKNTVYVQMNSLKPEDTAVYYCAAYYPSHDYSGFWSDTYEYWGQGTQVTVSS” as the sequence, how does the “polyreactivity (PSR sort gate)” value read?
Answer: low polyreactivity

Question: With “QVQLVESGGGLVQAGGSLRLSCAASGNIFRKYAMGWYRQAPGKERELVATISYSGGSTYYADSVKGRFTISRDNAKNTVYLQMNSLKPEDTAVYYCNAVKDLDSSFDYWGQGTQVTVSS” as the sequence, how does the “polyreactivity (PSR sort gate)” value read?
Answer: low polyreactivity

Question: With “QVQLVESGGGLVQAGGSLRLSCAASGNIFRRYTLGWSRQAPGKERELVAAISSGGSTNYADSVKGRFTLSRDNAKNTVYLQMNSLKPEDTAVYYCAATRRYIQYGYDYWGQGTQVTVSS” as the sequence, how does the “polyreactivity (PSR sort gate)” value read?
Answer: high polyreactivity

Question: With “QVQLVESGGGLVQAGGSLRLSCAASGNIFRSYMGWYRQAPGKEREFVAGITWRGGNTYYADSVKGRFTISRDNAKNTVYLQMNSLKPEDTAVYYCAAEIFVYYRWYDYWGQGTQVTVSS” as the sequence, how does the “polyreactivity (PSR sort gate)” value read?
Answer: high polyreactivity

Question: With “QVQLVESGGGLVQAGGSLRLSCAASGNIFRVYDMGWYRQAPGKERELVATITSGGRTYYADSVKGRFTISRDNAKNTVYLQMNSLKPEDTAVYYCNVDVKGRPTFWSPFGRFDYWGQGTQVTVSS” as the sequence, how does the “polyreactivity (PSR sort gate)” value read?
Answer: high polyreactivity

Question: With “QVQLVESGGGLVQAGGSLRLSCAASGNIFRYNAMGWYRQAPGKERELVAAISRGGSTKYADSVKGRFTISRDNAKNTVYLQMNSLKPEDTAVFYCARVKSTGSTFASPYDYWGQGTQVTVSS” as the sequence, how does the “polyreactivity (PSR sort gate)” value read?
Answer: high polyreactivity

Question: Which “polyreactivity (PSR sort gate)” value does the source give for “QVQLVESGGGLVQAGGSLRLSCAASGNIFRYNARGWYRKAPGKERELVAAISSVGTTNSADSVKGRFTSSRDNAKNTFYLQMNSLKPEDTAVYYCNAAWSSYLSGGYESWGQGTQVTVSS” here?
Answer: low polyreactivity

Question: With “QVQLVESGGGLVQAGGSLRLSCAASGNIFSKYVRGWYRQARGKERELVAAITYSGGSTYYADSVKGRFTISRDNSKNTVYLQMNSLKPEDTGVYYCNAVRRRSSLKLDSWGQGTQVTVSS” as the sequence, how does the “polyreactivity (PSR sort gate)” value read?
Answer: high polyreactivity

Question: Which “polyreactivity (PSR sort gate)” value does the source give for “QVQLVESGGGLVQAGGSLRLSCAASGNIFSRNAMGWYRQAPGKERELVASIRWSGGSTYADSVKGRFTISRDNAKNTVYLQMNSLKPEDTAVYYCAADSLHGRKFRGVDYWGQGTEVTVSS” here?
Answer: low polyreactivity

Question: For “QVQLVESGGGLVQAGGSLRLSCAASGNIFSRYAMGWYRQAPGKERELVAAISSSGGTTYYADSVKGRFTISRDNAKNTVYLHMNSLKPEDTAVYYCNARRRQIYSEFGYWGQGTQVTVSS”, which “polyreactivity (PSR sort gate)” value is on record?
Answer: high polyreactivity

Question: With “QVQLVESGGGLVQAGGSLRLSCAASGNIFSVYAMGWYRKAPGKERELVAAISSSGGRTYYADSVKGRFTISRDNEKNTVYLHMNSLKPEDTAVYYCAARSYTGQFVYWGQGTQVTVSS” as the sequence, how does the “polyreactivity (PSR sort gate)” value read?
Answer: high polyreactivity

Question: With “QVQLVESGGGLVQAGGSLRLSCAASGNIFSWYAMGWYRQAPGKERELVAAITSGGRTYYADSVKGRFTISRDNAKNTVYLQMNSLKPEDTAVYYCNALRRRQYHDDYWGQGTQVTVSS” as the sequence, how does the “polyreactivity (PSR sort gate)” value read?
Answer: high polyreactivity

Question: For “QVQLVESGGGLVQAGGSLRLSCAASGNIFSYYAMGWYRQAPGKERELVAAIRSSGVGTRYADSVKGRFTISRDNAKNTVYLQINSLKPEDTAVYYCAATGYTGYSRYYYWGQGTQVTVSS”, which “polyreactivity (PSR sort gate)” value is on record?
Answer: high polyreactivity

Question: Which “polyreactivity (PSR sort gate)” value does the source give for “QVQLVESGGGLVQAGGSLRLSCAASGNIFSYYAMGWYRQAPGKETELVAAIRSSGVGTRYADSVKGRFTISRDNAKNTVYVQMNSLKPEDTAVYYCAATGYTGYSRYYYWGQGTQVTVSS” here?
Answer: high polyreactivity

Question: For “QVQLVESGGGLVQAGGSLRLSCAASGNIFTGYMGWYRQAPRKERELVAAISRSGGRTHYADSVKGRFTISRDNAKNTVYLQMNSLKPEDTAVYYCNADVRRYTAFTKYPYAFNYWGQGTQVTVSS”, which “polyreactivity (PSR sort gate)” value is on record?
Answer: high polyreactivity

Question: Which “polyreactivity (PSR sort gate)” value does the source give for “QVQLVESGGGLVQAGGSLRLSCAASGNIFTQYGMGWYRQAPGKERELVAAISRRGGSTYYADSVKGRFTISRDNAKNTVYLQMNSLNPEDTAVYYCARRTNRPPWGFEYWGQGTQVTVSS” here?
Answer: high polyreactivity

Question: For “QVQLVESGGGLVQAGGSLRLSCAASGNIFVVNAMGWYRQAPGIERELVAAITVSGGSTYYADSVKGRFTISRDNAKNTVYLQMNRLKPEDTAVYYCNAYYWHDNWDIELGKFDYWGQGTQVTVSS”, which “polyreactivity (PSR sort gate)” value is on record?
Answer: low polyreactivity

Question: Which “polyreactivity (PSR sort gate)” value does the source give for “QVQLVESGGGLVQAGGSLRLSCAASGNIFWSNAMGWYRQAPGKERELVAGITSSTGSTYYADSVKGRFTISRDNAKNTVYLQMNSLKPEDTAVYSCAARYRYYPVTTRGYYWGQGTQVTVSS” here?
Answer: high polyreactivity

Question: Which “polyreactivity (PSR sort gate)” value does the source give for “QVQLVESGGGLVQAGGSLRLSCAASGNIIDANAMGWYRQAPGKERELVAAITSSGGSTYYADSVKGRFTISRDNANNTVYLQMNSLKPEDTAVYYCAKSHAIYYWWDESWGHGTQVTVSS” here?
Answer: low polyreactivity
